First the molecules themselves.
B1: KCNA4 (parent)
chain: YQSGGRLKRPVNVPFDIFTEEVKF

The values that follow come from the supplement of paper PMC10567573.
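Note: lentivirally expressed fusions sorted by FACS into six bins by GFP to DsRed ratio, PSI derived from sequencing read proportions per bin multiplied by bin number.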

The variants in the data set derive from B1. In words: protein stability index of a GFP-peptide fusion (GPS, HEK-293T) (PSI 1-6); higher = more stable. The note with it: c terminus: a fixed tail appended.
With YQSGGRLKRPVNVPFDINTEEVKF [F18N], the protein stability index came to 2.1.
The result for YQSGGRLKRPVNVPFDICTEEVKF [F18C] reads 1.57; that for YQSGGRLKRPVNVPFDISTEEVKF [F18S], 2.43.
As to YQSGGRLKRPVNVPFDITTEEVKF [F18T], the protein stability index was 2.26.
The same measure for YQSGGRLKRPVNVPFDIVTEEVKF [F18V]: 1.67; for YQSGGRLKRPVNVPFDIETEEVKF [F18E]: 1.81; for YQSGGRLKRPVNVPFDIITEEVKF [F18I]: 1.97.
The same measure for YQSGGRLKRPVNVPFDIGTEEVKF [F18G]: 2.29; for YQSMGRLKRPVNVPFDIFTEEVKF [G4M]: 2.08; for YQSFGRLKRPVNVPFDIFTEEVKF [G4F]: 1.71.
The same measure for YQSEGRLKRPVNVPFDIFTEEVKF [G4E]: 1.99.
YQSLGRLKRPVNVPFDIFTEEVKF [G4L]: the protein stability index amounted to 2.77.
On to YQSCGRLKRPVNVPFDIFTEEVKF [G4C], for which the protein stability index was found to be 1.74.
With YQSVGRLKRPVNVPFDIFTEEVKF [G4V], the protein stability index was 1.78.
The result for YQSAGRLKRPVNVPFDIFTEEVKF [G4A] reads 2.09; that for YQSGGRLKRPVNVPIDIFTEEVKF [F15I], 2.45; that for YQSGGRLKRPVNVPKDIFTEEVKF [F15K], 2.1.
The same measure for YQSGGRLKRPVNVPTDIFTEEVKF [F15T]: 2.22.
As to YQSGGRLKRPVNVPMDIFTEEVKF [F15M], the protein stability index was found to be 3.
The result for YQSGGRLKRPVNVPWDIFTEEVKF [F15W] reads 2.12.
The same measure for YQSGGRLKRPVNVPEDIFTEEVKF [F15E]: 2.75; for YGSGGRLKRPVNVPFDIFTEEVKF [Q2G]: 1.77.
The same measure for YNSGGRLKRPVNVPFDIFTEEVKF [Q2N]: 2.12.
With YFSGGRLKRPVNVPFDIFTEEVKF [Q2F], the protein stability index was found to be 2.19.
For YDSGGRLKRPVNVPFDIFTEEVKF [Q2D], the protein stability index worked out at 2.97.
Consider YISGGRLKRPVNVPFDIFTEEVKF [Q2I], for which the protein stability index was determined as 1.93.
The result for YESGGRLKRPVNVPFDIFTEEVKF [Q2E] reads 2.73.
The same measure for YLSGGRLKRPVNVPFDIFTEEVKF [Q2L]: 1.64; for YRSGGRLKRPVNVPFDIFTEEVKF [Q2R]: 2.22; for YVSGGRLKRPVNVPFDIFTEEVKF [Q2V]: 3.32.
The result for YQSGGRLKAPVNVPFDIFTEEVKF [R9A] reads 2.04; that for YQSGGRLKFPVNVPFDIFTEEVKF [R9F], 1.58; that for YQSGGRLKIPVNVPFDIFTEEVKF [R9I], 1.65.
With YQSGGRLKTPVNVPFDIFTEEVKF [R9T], the protein stability index stood at 1.7.
Regarding YQSGGRLKEPVNVPFDIFTEEVKF [R9E], the protein stability index was 2.06.
The result for YQSGGRLKHPVNVPFDIFTEEVKF [R9H] reads 2.02; that for YQSGGRLKSPVNVPFDIFTEEVKF [R9S], 2.1.
The result for YQSGGRLKLPVNVPFDIFTEEVKF [R9L] reads 2.11; that for YQSGGRLKQPVNVPFDIFTEEVKF [R9Q], 2.34; that for YQSGGRLKRPVIVPFDIFTEEVKF [N12I], 1.44.
For YQSGGRLKRPVKVPFDIFTEEVKF [N12K], the protein stability index came out at 3.14.
Regarding YQSGGRLKRPVCVPFDIFTEEVKF [N12C], the protein stability index amounted to 1.8.
The result for YQSGGRLKRPVPVPFDIFTEEVKF [N12P] reads 1.55.
The result for YQSGGRLKRPVFVPFDIFTEEVKF [N12F] reads 2.5; that for YQSGGRLKRPVLVPFDIFTEEVKF [N12L], 2.43.
The same measure for YQSGGRLKRPVVVPFDIFTEEVKF [N12V]: 1.54; for YQSGGRLKRPVHVPFDIFTEEVKF [N12H]: 1.91.
Turning to YQSGGRLKRPVTVPFDIFTEEVKF [N12T], the protein stability index came to 2.07.
As for YQSGGRLKRPVDVPFDIFTEEVKF [N12D], the protein stability index stood at 2.38.
YQSGGRCKRPVNVPFDIFTEEVKF [L7C]: the protein stability index turned out to be 1.78.
The same measure for YQSGGRKKRPVNVPFDIFTEEVKF [L7K]: 2.15; for YQSGGRDKRPVNVPFDIFTEEVKF [L7D]: 1.95; for YQSGGRFKRPVNVPFDIFTEEVKF [L7F]: 2.4.
The result for YQSGGRMKRPVNVPFDIFTEEVKF [L7M] reads 1.56; that for YQSGGRWKRPVNVPFDIFTEEVKF [L7W], 1.77; that for YQSGGRRKRPVNVPFDIFTEEVKF [L7R], 1.7.
The result for YQSGGRYKRPVNVPFDIFTEEVKF [L7Y] reads 1.86; that for YQSGGRPKRPVNVPFDIFTEEVKF [L7P], 1.99; that for YQSGGREKRPVNVPFDIFTEEVKF [L7E], 2.16.
For YQPGGRLKRPVNVPFDIFTEEVKF [S3P], the protein stability index is 1.7.
The result for YQDGGRLKRPVNVPFDIFTEEVKF [S3D] reads 3.3; that for YQEGGRLKRPVNVPFDIFTEEVKF [S3E], 2.57; that for YQGGGRLKRPVNVPFDIFTEEVKF [S3G], 2.05.
The result for YQVGGRLKRPVNVPFDIFTEEVKF [S3V] reads 1.75; that for YQSGGRLKRPVNVPFDIFTEEIKF [V22I], 1.38; that for YQSGGRLKRPVNVPFDIFTEEQKF [V22Q], 2.08.
The same measure for YQSGGRLKRPVNVPFDIFTEEEKF [V22E]: 2.77; for YQSGGRLKRPVNVPFDIFTEETKF [V22T]: 1.96; for YQSGGRLKRPVNVPFDIFTEEAKF [V22A]: 1.58.
Consider YQSGGRLKRPVNVPFDIFTEESKF [V22S], for which the protein stability index turned out to be 2.
The result for YQSGGRLKRPVNVPFDIFTEEDKF [V22D] reads 2.09.
Consider YQSGGRLKRPVNVPFDIFTEKVKF [E21K], for which the protein stability index stood at 1.17.
Consider YQSGGRLKRPVNVPFDIFTEDVKF [E21D], for which the protein stability index stood at 2.37.
The same measure for YQSGGRLKRPVNVPFDIFTEHVKF [E21H]: 1.77; for YQSGGRLKRPVNVPFDIFTEMVKF [E21M]: 1.06.
The result for YQSGGRLKRPVNVPFDIFTENVKF [E21N] reads 2.63; that for YQSGGRLKRPVNVPFDIFTEFVKF [E21F], 1.55; that for YQSGGRLKRPVNVPFDIFTEEVKN [F24N], 1.93.
The result for YQSGGRLKRPVNVPFDIFTEEVKQ [F24Q] reads 2.92; that for YQSGGRLKRPVNVPFDIFTEEVKG [F24G], 2.26.
With YQSGGRLKRPVNVPFDIFTEEVKH [F24H], the protein stability index was determined as 2.16.
On to YQSGGRLKRPVNVPFDIFTEEVKL [F24L], for which the protein stability index was found to be 2.05.
The result for YQSGGRLKRPVNVPFDIFTEEVKK [F24K] reads 2.49.
The same measure for YQSGGRLKRPVNVPFDIFTEEVKY [F24Y]: 2.89; for YQSGGRLKRPVNVPFDIFTEEVKC [F24C]: 1.93; for YQSGGRLKRPVNVPFDIFTEEVKV [F24V]: 2.49.
The same measure for YQSGGRLKRPVNVPFDIFTEEVKP [F24P]: 2.25; for YQSGGRLKRPKNVPFDIFTEEVKF [V11K]: 1.39; for YQSGGRLKRPHNVPFDIFTEEVKF [V11H]: 1.69.
Regarding YQSGGRLKRPPNVPFDIFTEEVKF [V11P], the protein stability index turned out to be 1.82.
The same measure for YQSGGRLKRPGNVPFDIFTEEVKF [V11G]: 1.31.
The same measure for YQSGGRLKRPINVPFDIFTEEVKF [V11I]: 2.3; for YQSGGRLKRPRNVPFDIFTEEVKF [V11R]: 1.81; for YQSGGRLKRPLNVPFDIFTEEVKF [V11L]: 1.95.
